Measurements reported in the RNAGym collection of RNA variant scans (doi:10.1093/molbev/msab373).

B1: Azoarcus group I ribozyme (parent)
chain: GUGCCUUGCGCCGGGAAACCACGCAAGGGAUGGUGUCAAAUUCGGCGAAACCUAAGCGCCCGCCCGGGCGUAUGGCAACGCCGAGCCAAGCUUCGGCGCCUGCGCCGAUGAAGGUGUAGAGACUAGACGGCACCCACCUAAGGCAAACGCUAUGGUGAAGGCAUAGUCCAGGGAGUGGCGAAAGUCACACAAACCGG

Variants of: B1
Assay: reverse-splicing fitness (ratio to wild type); higher = more active; in vitro selection; Mg2+ level not given
Summary of the method: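 An in vitro group I ribozyme library with randomized positions was T7-transcribed and gel-purified. In triplicate, 10 pmol RNA in EPPS pH 7.5 was reacted with 50 pmoles of a 30-nt RNA substrate for 1 h at 37 °C across several added MgCl2 levels (1–48 mM), then stopped with EDTA. Products were reverse transcribed from a substrate-complementary primer, PCR-amplified and sequenced (HiSeq 4000). Fitness is a variant's read proportion after selection over that before, normalised to wild type.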

Point of comparison: GUGCCUUGCGCCGGGAAACCACGCAAGGGAUGGUGUCAAAUUCGGCGAAACCUAAGCGCCCGCCCGGGCGUAUGGCAACGCGGAGCCAAGCUUCGGCGCCUGCGCCGAUGGAGGUGUAGGGACUAGACGGCACCCACCUAAGGCCAACGUUAUGGUGAAGGCAUAGUCUAGGGAGAGGCGAAAGUCACACAAACCGG, reverse-splicing fitness 0.0174. Against it:
- GUGCCUUGCGCCGGGAAACCACGCAAGGGAUGGUGUCAAAUUCGGCGAAACCUAAGCGCCCGCCCGGGCGUAUGGCAACGCGGAGCCAAGCUUCGGCGCCUGCGCCGAUGGAGGUGUAGGGACUAGACGGCACCCACCUAAGGCCAACGUUAUGGUGAAGGCAUAGUCUAGGGAGCGGCGAAAGUCACACAAACCGG — lower, 0.0151
- GUGCCUUGCGCCGGGAAACCACGCAAGGGAUGGUGUCAAAUUCGGCGAAACCUAAGCGCCCGCCCGGGCGUAUGGCAACGCGGAGCCAAGCUUCGGCGCCUGCGCCGAUGGAGGUGUAGGGACUAGACGGCACCCACCUAAGGCCAACGUUAUGGUGAAGGCAUAGUCUAGGGAGGGGCGAAAGUCACACAAACCGG — lower, 0.00538
- GUGCCUUGCGCCGGGAAACCACGCAAGGGAUGGUGUCAAAUUCGGCGAAACCUAAGCGCCCGCCCGGGCGUAUGGCAACGCGGAGCCAAGCUUCGGCGCCUGCGCCGAUGGAGGUGUAGGGACUAGACGGCACCCACCUAAGGCCAACGCUAUGGUGAAGGCAUAGUCAAGGGAGAGGCGAAAGUCACACAAACCGG — lower, 0.0165
- GUGCCUUGCGCCGGGAAACCACGCAAGGGAUGGUGUCAAAUUCGGCGAAACCUAAGCGCCCGCCCGGGCGUAUGGCAACGCGGAGCCAAGCUUCGGCGCCUGCGCCGAUGGAGGUGUAGGGACUAGACGGCACCCACCUAAGGCCAACGCUAUGGUGAAGGCAUAGUCAAGGGAGGGGCGAAAGUCACACAAACCGG — lower, 0.00415
- GUGCCUUGCGCCGGGAAACCACGCAAGGGAUGGUGUCAAAUUCGGCGAAACCUAAGCGCCCGCCCGGGCGUAUGGCAACGCGGAGCCAAGCUUCGGCGCCUGCGCCGAUGGAGGUGUAGGGACUAGACGGCACCCACCUAAGGCCAACGCUAUGGUGAAGGCAUAGUCAAGGGAGCGGCGAAAGUCACACAAACCGG — lower, 0.0114
- GUGCCUUGCGCCGGGAAACCACGCAAGGGAUGGUGUCAAAUUCGGCGAAACCUAAGCGCCCGCCCGGGCGUAUGGCAACGCGGAGCCAAGCUUCGGCGCCUGCGCCGAUGGAGGUGUAGGGACUAGACGGCACCCACCUAAGGCCAACGCUAUGGUGAAGGCAUAGUCUAGGGAGCGGCGAAAGUCACACAAACCGG — lower, 0.0166
- GUGCCUUGCGCCGGGAAACCACGCAAGGGAUGGUGUCAAAUUCGGCGAAACCUAAGCGCCCGCCCGGGCGUAUGGCAACGCGGAGCCAAGCUUCGGCGCCUGCGCCGAUGGAGGUGUAGGGACUAGACGGCACCCACCUAAGGCCAACGCUAUGGUGAAGGCAUAGUCUAGGGAGGGGCGAAAGUCACACAAACCGG — lower, 0.00427
- GUGCCUUGCGCCGGGAAACCACGCAAGGGAUGGUGUCAAAUUCGGCGAAACCUAAGCGCCCGCCCGGGCGUAUGGCAACGCGGAGCCAAGCUUCGGCGCCUGCGCCGAUGGAGGUGUAGGGACUAGACGGCACCCACCUAAGGCCAACGCUAUGGUGAAGGCAUAGUCUAGGGAGAGGCGAAAGUCACACAAACCGG — higher, 0.0179
- GUGCCUUGCGCCGGGAAACCACGCAAGGGAUGGUGUCAAAUUCGGCGAAACCUAAGCGCCCGCCCGGGCGUAUGGCAACGCGGAGCCAAGCUUCGGCGCCUGCGCCGAUGGAGGUGUAGGGACUAGACGGCACCCACCUAAGGCCAACGCUAUGGUGAAGGCAUAGUCGAGGGAGUGGCGAAAGUCACACAAACCGG — higher, 0.0204
- GUGCCUUGCGCCGGGAAACCACGCAAGGGAUGGUGUCAAAUUCGGCGAAACCUAAGCGCCCGCCCGGGCGUAUGGCAACGCGGAGCCAAGCUUCGGCGCCUGCGCCGAUGGAGGUGUAGGGACUAGACGGCACCCACCUAAGGCCAACGCUAUGGUGAAGGCAUAGUCUAGGGAGUGGCGAAAGUCACACAAACCGG — lower, 0.0132
- GUGCCUUGCGCCGGGAAACCACGCAAGGGAUGGUGUCAAAUUCGGCGAAACCUAAGCGCCCGCCCGGGCGUAUGGCAACGCGGAGCCAAGCUUCGGCGCCUGCGCCGAUGGAGGUGUAGGGACUAGACGGCACCCACCUAAGGCCAACGCUAUGGUGAAGGCAUAGUCAAGGGAGUGGCGAAAGUCACACAAACCGG — lower, 0.0114
- GUGCCUUGCGCCGGGAAACCACGCAAGGGAUGGUGUCAAAUUCGGCGAAACCUAAGCGCCCGCCCGGGCGUAUGGCAACGCGGAGCCAAGCUUCGGCGCCUGCGCCGAUGGAGGUGUAGGGACUAGACGGCACCCACCUAAGGCCAACGUUAUGGUGAAGGCAUAGUCUAGGGAGUGGCGAAAGUCACACAAACCGG — lower, 0.0088
- GUGCCUUGCGCCGGGAAACCACGCAAGGGAUGGUGUCAAAUUCGGCGAAACCUAAGCGCCCGCCCGGGCGUAUGGCAACGCGGAGCCAAGCUUCGGCGCCUGCGCCGAUGGAGGUGUAGGGACUAGACGGCACCCACCUAAGGCCAACGUUAUGGUGAAGGCAUAGUCGAGGGAGUGGCGAAAGUCACACAAACCGG — lower, 0.0111
- GUGCCUUGCGCCGGGAAACCACGCAAGGGAUGGUGUCAAAUUCGGCGAAACCUAAGCGCCCGCCCGGGCGUAUGGCAACGCGGAGCCAAGCUUCGGCGCCUGCGCCGAUGGAGGUGUAGGGACUAGACGGCACCCACCUAAGGCCAACGUUAUGGUGAAGGCAUAGUCAAGGGAGUGGCGAAAGUCACACAAACCGG — lower, 0.00962
